What was measured:
[1] = tested on: J774 cells; experiment: Western blot: internalization of the cargo protein E7 to the cell; format: cell-based; conditions: 25 μM protein, J774, 4 hours at 37° C., FIG. 5
Method: The cells J774 grown overnight at 37° C. and 5% of CO2 with RPMI 1640, 10% inactivated calf fetal serum and 2 mM de glutamine. After that, the cell were aliquoted in tubes with 5×10^6 cells each and incubated with 25 μM of fusion protein LALF-E7, 25 μM of protein E7 and PBS during 4 hours at 37° C. The sedimentation of the cells was made by a centrifugation to 1000 rpm by 10 minutes. Wash pellet in three changes of PBS. Cells were ruptured in 100 μL of RIPA buffer (Promega) mixed in vortex per 10 second and 2 min in ice. The sedimentation of the broken cells was made by a centrifugation to 12000 rpm by 15 minutes. Protein concentration was determined to the cell extract and rum 10 μg of total protein in 15% polyacrilamide gel. Subsequently the gel was transferred to a nitrocellulose membrane. The membrane was incubated for 2 hours at room temperature with an IgG goat polyclonal antibody anti-E7 HPV 16 (Santa Cruz) diluted in PBS (1:100). Wash in three changes of PBS. Subsequently, the membrane was incubated for 45 minutes at room temperature and in a dark room with an anti-goat IgG peroxidase conjugate (Sigma) diluted in PBS (1:5000). Wash in three changes of PBS. Finally the ECL system from Amersham Pharmacia Biotech was used.

[2] = tested on: TC-1 tumor cell line expressing the HPV16 E7 protein; experiment: Treatment of established TC-1 tumors in mice, fusion versus mix (Example 9); format: in vivo, Mice C57BL/6; conditions: two immunizations every 14 days from day 10, volume at the 30 days, p<0.01 vs LALF+E7, LALF, E7 and PBS, FIG. 8
Method: To study whether the antitumor effect of LALF-E7 was associated with the covalent bond of both molecules, we carried out experiments in which mice were treated for LALF and E7, which were mixed at the time prior to their use at equal molarity that would allow a comparison with mice that received the fusion protein LALF-E7.
In this realization, Mice C57BL/6 was inoculated with 2×10^5 cells by subcutaneous injection in right leg in volumes of 0.2 mL. To the 10 days, when all the animals had developed palpable tumors, the animals were assigned arbitrarily to five groups of treatments. Each group included 10 animals.
Two immunizations, every 14 days were made. The group 1 was immunized with the recombinant protein LALF-E7; group 2 with the mix LALF+E7: recombinant protein E7; group 3 with synthetic peptide LALF; group 4 with recombinant protein E7 and group 5 with PBS. The tumor kinetic in the different groups was followed as previously described in the example 8. The volume average of each group +/− the standard deviation at the 30 days is represented in the FIG. 8.

[3] = tested on: TC-1 tumor cell line expressing the HPV16 E7 protein; experiment: Treatment of established TC-1 tumors in mice (Example 8); format: in vivo, Mice C57BL/6; conditions: two immunizations every 14 days from day 10, volume at the 30 days, p<0.01 vs E7, LALF and PBS, FIG. 7
Source text: In order to observe the regression of established tumors from the treatment with the recombinant protein fusion LALF-E7, the tumor cell line TC-1, was used. The TC-1 tumor cell line expressing the HPV16 E7 protein was derived from primary lung cells of C57Bl/6 mice by immortalization and transformation with HPV16 E6 and E7 genes and an activated human C-Ha-ras gene as described in Lin et al. (1996)) Treatment of established tumors with a novel vaccine that enhances major histocompatibility class II presentation of tumor antigen. Cancer Res. 56:21-26. For tumor inoculation, TC-1 cells, supplied by Dr. T.-C. Wu (The Johns Hopkins Medical Institutions, Baltimore, Md.), were grown to 60-70% confluence in RPMI1640 medium supplemented with 10% fetal calf serum (Hyclone, Logan, Utah), nonessential amino acids, glutamine, pyruvate, gentamycin, beta-mercaptoethanol and 0.4 mg/mL Geneticin at 37° C. Cells were harvested by trypsinization and resuspended in Hank's buffer solution at […].
Mice C57BL/6 was inoculated with 2×10^5 cells by subcutaneous injection in right leg in volumes of 0.2 mL. […] The tumor kinetic in the different groups was followed by the tumor volume which was determined using electronic calipers and taking the measures in two orthogonal dimensions. Tumor volumes (mm^3) were calculated from these measurements according to (length×width^2)/2. […]

[4] = tested on: J774 cells; experiment: Fluorescence microscopy: internalization of the cargo protein E7 to the cell; format: cell-based; conditions: 1.66 μM protein, J774, 37° C., 30 min, 1 hour and 2 hours, FIG. 4
Method: Cells J774 grown on sterile glass cover slips of 22 mm overnight at 37° C. and 5% of CO2 with RPMI 1640, 10% inactivated calf fetal serum and 2 mM de glutamine. Then, different glass cover slips incubated with 1.66 μM fusion protein LALF-E7, 1.66 μM of protein E7 and PBS (as negative control) a 37° C. per 30 min, 1 hour and 2 hours. CasKi cells (human cells expressing HPV 16) grown as positive control in the same experimental conditions.
After incubation the cells were washed briefly with PBS and fix cells by 4% paraformaldehide per 20 min at room temperature. Wash in three changes of PBS. The permeabilization of the cells was with 0.5% Tritón X-100 for 15 min a room temperature. Wash in three changes of PBS. Then, the cells were incubating for 1 hour in 1% blocking SFB in PBS at room temperature. Wash in three changes of PBS. Cells were incubated with goat IgG anti E7/HPV 16 polyclonal antibody (Santa Cruz) diluted in PBS 1:50. Wash extensively with PBS. Incubate with anti-goat-fluorescein IgG polyclonal antibody (Santa Cruz) diluted in PBS 1:50 for 45 minutes in a dark chamber. Wash extensively with PBS. Mount cover slip with aqueous mounting medium. Examine using a fluorescence microscope with appropriate filters.

B1: LALF-E7: recombinant fusion of CPP LALF to E7 protein of HPV 16, cysteine per glycine in Rb site (SEQ ID N0. 9 y 10) (protein)
chain: MAEFHYRIKPTFRRLKWKYKGKFWKASHGDTPTLHEYMLDLQPETTDLYGYEQLNDSSEEEDEIDGPAGQAEPDRAHYNIVTFCCKCDSTLRLCVQSTHVDIRTLEDLLMGTLGIVCPICSQKPGSRAHHHHHH
modifications: Artificial Sequence Description Protein fusion CPP LALF-E7
detection of protein in cell extract by anti-E7 antibody (Western blot) [1]: recognized by the anti-E7 antibody | effect on volume of established tumors [2]: effects in reducing the volume of tumors | effect on growth of established tumors (tumor volume) [3]: full inhibition of growth of established tumors | internalization of E7 (fluorescent cells, anti-E7 antibody) [4]: fluorescent cells

Source: patent publication US8673313B2, “Cell penetrating peptides and its use fused to biomolecules with therapeutic action” (priority 2007, dated 2014)
